{"source": "patent US20130224191A1", "about": "“NOTUM PROTEIN MODULATORS AND METHODS OF USE” (priority 2010, published 2013)", "molecules": {"B1": {"name": "macaque Notum: recombinant macaque Notum protein, construct not stated (protein)", "chain": "SEGRKTWRRRGQQPPPPPRTEAAPAAGQPVESFPLDFTAVEGNMDSFMAQVKSLAQSLYPCSAQQLNEDLRLHLLLNTSVTCNDGSPAGYYLKESRGSRRWLLFLEGGWYCFNRENCDSRYNTMRRLMSSRDWPRTRTGTGILSSQPEENPYWWNANMVFIPYCSSDVWSGASSKSEKNEYAFMGALIIQEVVRELLGRGLSGAKVLLLAGSSAGGTGVLLNVDRVAEQLEELGYPAIQVRGLADSGWFLDNKQYRHTDCVDTITCAPTEAIRRGIRYWNGVVPERCRRQFQEGEEWNCFFGYKIYPTLRCPVFVVQWLFDEAQLTVDNVHLTGQPVQESQRLYIQNLGRELRHTLKDVPASFAPACLSHEIIIRSHWTDVQVKGTSLPRALHCWDRSLHDSHKNSKTPLKGCPVHLVDSCPWPHCNPSCPTVRDQFTGQEMNVAQFLMHMGFDVQTVAQQQGPEPSKLLGL", "modifications": "left off: a dimerising Fc or GST"}, "B2": {"name": "hNotum-His: recombinant His tagged human Notum protein (protein)", "chain": "SEGRKTWRRRGQQPPPPPRTEAAPAAGQPVESFPLDFTAVEGNMDSFMAQVKSLAQSLYPCSAQQLNEDLRLHLLLNTSVTCNDGSPAGYYLKESRGSRRWLLFLEGGWYCFNRENCDSRYDTMRRLMSSRDWPRTRTGTGILSSQPEENPYWWNANMVFIPYCSSDVWSGASSKSEKNEYAFMGALIIQEVVRELLGRGLSGAKVLLLAGSSAGGTGVLLNVDRVAEQLEKLGYPAIQVRGLADSGWFLDNKQYRHTDCVDTITCAPTEAIRRGIRYWNGVVPERCRRQFQEGEEWNCFFGYKVYPTLRCPVFVVQWLFDEAQLTVDNVHLTGQPVQEGLRLYIQNLGRELRHTLKDVPASFAPACLSHEIIIRSHWTDVQVKGTSLPRALHCWDRSLHDSHKASKTPLKGCPVHLVDSCPWPHCNPSCPTVRDQFTGQEMNVAQFLMHMGFDMQTVAQPQGLEPSELLGMLSNGS", "modifications": "left off: small tags and cut ends", "notes": "recombinant His tagged human Notum protein"}, "B3": {"name": "hNotum: recombinant human Notum protein (e.g. hNotum-His or hNotum-hFc) (protein)", "chain": "B2 chain"}, "B4": {"name": "human-NOTUM S232A mutant: human Notum with S232A point mutation of the putative catalytic nucleophile (His and hFc) (protein, UniProt Q6P988 20-496, looked up, variant S232A)", "Palmitoleoyl-protein …": "B2 chain with S213A", "modifications": "His tag or human Fc"}}, "key": {"Notum": {"molecular_target": "T1, Notum (Homo sapiens, UniProt Q6P988)", "T1 sequence (Q6P988 20-496)": "B2 chain", "experiment": "4-MUH assay, small molecule inhibition of Notum", "assay_type": "biochemical", "conditions": "4-MUH 240 μM or 90 μM; orlistat 0-170 μM", "protocol": "(§1) In addition to the assays described in Examples 23 and 24, a fluorescent esterase substrate, 4-methylumbelliferyl heptanoate (Sigma), can be used to measure the activity of hydrolases using standard assay conditions (Richardson and Smith, 2007, PMID: 17620441; Jacks and Kircher, 1967, PMID: 5582971). Briefly, 4-MUH was dissolved in DMSO to a final concentration of 1.2 mM. This substrate was diluted 1:10 into assay buffer (0.1M Tris, pH 7.5, 50 mM NaCl, 0.05% Brij) and incubated with defined amounts of Notum enzyme or point-mutated Notum enzymes, and enzymatic release of the fluorescent molecule 4-methylumbelliferone monitored (355 nm excitation, 460 nm emission) using a Wallac Victor3 Multilabel Counter (Perkin Elmer).\nConsistent with a putative hydrolase activity for Notum, it could be hypothesized that this inactivation is related to the ability of Notum to delipidate Wnt3A. Two lipids are known to be linked to Wnt3A, a saturated palmitate chain at Cys77 and an unsaturated palmitoleoylic chain at S209 (Lorenowicz and Korswagen, 2009, PMID: 19559695). […] Therefore, the 4-MUH assay described in example 25 was performed in the presence of varying amounts of 4-MUH substrate (240 μM or 90 μM) and orlistat (0-170 μM)."}, "[1]": {"molecular_target": "Wnt3A (conditioned medium from L/Wnt3A cells, ATCC CRL-2647) (UniProt P27467)", "sequence (P27467 19-352 limits assumed)": "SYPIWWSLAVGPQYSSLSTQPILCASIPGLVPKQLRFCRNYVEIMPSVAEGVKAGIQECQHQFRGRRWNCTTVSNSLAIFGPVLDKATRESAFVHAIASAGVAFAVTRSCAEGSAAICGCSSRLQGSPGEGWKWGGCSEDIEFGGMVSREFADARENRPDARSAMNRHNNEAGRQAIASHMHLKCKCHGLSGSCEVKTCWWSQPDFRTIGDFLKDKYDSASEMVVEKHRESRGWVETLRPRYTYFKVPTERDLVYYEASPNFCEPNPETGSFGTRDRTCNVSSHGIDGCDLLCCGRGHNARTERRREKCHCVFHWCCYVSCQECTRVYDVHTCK", "experiment": "cell-based or functional assay", "design": "unit not given beside the values"}, "[2]": {"tested_on": "luciferase transcription in the 293.TCF cells", "experiment": "Luciferase reporter activation in 293.TCF cells", "assay_type": "cell-based, human", "conditions": "40 mM", "text": "To generate a stable population of cells that contain a reporter for the activation of canonical Wnt signaling, HEK 293T cells were transduced with a lentiviral vector, pGreenFirel-TCF (System Biosciences) which encodes a bifunctional GFP and luciferase reporter cassette under the control of a minimal CMV reporter linked to four tandem repeats of the transcriptional response elements for TCF. Transduced cells populations, termed 293.TCF cells, were subsequently used in a Wnt3A canonical signaling assay as follows: 2.5×10^4 293.TCF cells were plated per well of a 96-well tissue culture plate in 50 μL of serum-free DME medium. After 24 hours of serum starvation, 25 μL of various dilutions of conditioned medium (CM) from L/Wnt3A cells (ATCC CRL-2647; Willert, 2003) or undiluted CM from parental L-cells (ATCC CRL-2648) along with 25 μL of DMEM+0.2% FBS were added to each well. […] The contents of each well were then mixed thoroughly to lyse the cells, 100 μL of lysate transferred to black 96-well plates, and the luminescence in each well read after 5 mins using a Wallac Victor3 Multilabel Counter (Perkin-Elmer Corp). […] More particularly, as the Wnt3A+ CM media is diluted from 25% down to approximately 3%, activation of the Wnt pathway is reduced with a corresponding decrease in luminescence."}, "[3]": {"experiment": "Esterase activity of Notum proteins on chromogenic substrates", "assay_type": "biochemical", "conditions": "1 hour at 37° C.", "protocol": "Briefly, PNPA or PNPB were dissolved/diluted in isopropanol to final concentrations of 10 mM. These substrate solutions were diluted 1:10 into assay buffer (0.1% gum arabic, 2.3 mg/mL sodium dexoycholate, 1×PBS) and incubated with defined amounts of hNotum enzyme, and the enzymatic release of the chromophore p-nitrophenol monitored by absorbance measurements at 405 nm."}, "[4]": {"tested_on": "Wnt3A-mediated induction of luciferase in the 293.TCF cells", "experiment": "Wnt3A canonical signaling assay, bioactivity of Notum constructs", "assay_type": "cell-based, human", "text": "To generate a stable population of cells that contain a reporter for the activation of canonical Wnt signaling, HEK 293T cells were transduced with a lentiviral vector, pGreenFirel-TCF (System Biosciences) which encodes a bifunctional GFP and luciferase reporter cassette under the control of a minimal CMV reporter linked to four tandem repeats of the transcriptional response elements for TCF. Transduced cells populations, termed 293.TCF cells, were subsequently used in a Wnt3A canonical signaling assay as follows: 2.5×10^4 293.TCF cells were plated per well of a 96-well tissue culture plate in 50 μL of serum-free DME medium. After 24 hours of serum starvation, 25 μL of various dilutions of conditioned medium (CM) from L/Wnt3A cells (ATCC CRL-2647; Willert, 2003) or undiluted CM from parental L-cells (ATCC CRL-2648) along with 25 μL of DMEM+0.2% FBS were added to each well. Eighteen hours after addition of CM, 100 μL of One-Glo solution (ProMega Corp.) was added to each well. The contents of each well were then mixed thoroughly to lyse the cells, 100 μL of lysate transferred to black 96-well plates, and the luminescence in each well read after 5 mins using a Wallac Victor3 Multilabel Counter (Perkin-Elmer Corp). […] More particularly, as the Wnt3A+ CM media is diluted from 25% down to approximately 3%, activation of the Wnt pathway is reduced with a corresponding decrease in luminescence.\nOnce the luciferase reporter system was established, assays for determining the bioactivity of various Notum modulators were performed as follows. 2.5×10^4 293.TCF cells were plated per well of a 96-well tissue culture plate in 50 μL of serum-free medium. After 23 hours of serum starvation, 25 μL of DMEM+0.2% FBS containing various Notum modulators at various concentrations (e.g., hNotum-His, hNotum-hFc, hNotum-S232A-His, murine Notum-His, murine Notum-hFc, macaque Notum-hFc, control protein-His or control protein-hFc obtained as per Examples 7, 8 and 13 above), were added to the cells. After 1 hour, 25 μL of Wnt3A or control L-cell CM were added to each well. Eighteen hours after addition of CM, 100 μL of One-Glo solution (ProMega Corp.) was added to each well, the contents of each well mixed thoroughly to lyse the cells, 100 μL of lysate transferred to black 96-well plates, and the luminescence read after 5 minutes."}, "[5]": {"tested_on": "mouse lineage-depleted NTX tumor cells from SCRx-CR42", "experiment": "Cell survival/proliferation, CellTiterGlo, SCRx-CR42", "assay_type": "cell-based, human", "conditions": "10 μg/mL, 14 days", "protocol": "(§2) To determine whether Notum protein impacts cell proliferation and/or apoptosis of human colorectal cancer cells, HCT-116 cells or mouse lineage-depleted NTX tumor cells (i.e. human tumor cells) were plated as described below and exposed to recombinant hNotum (e.g. hNotum-His or hNotum-hFc) and anti-Notum antibodies. Cell numbers were then assessed 12-14 days later.\n(§3) Cells were then incubated for 14 days at 37° C., 5% CO2 and 5% O2 and the number of viable cells was assessed using Promega's CellTiterGlo assay kit per the manufacturer's instructions. For the HCT-116 cell line (a commercially available colorectal tumor cell line), cells were plated at 2,000 cells per well in DMEM+1% FBS, followed 24-hours later by the addition of serum free DMEM containing recombinant human Notum in the presence or absence of monoclonal antibodies SC2.D2.2 or SC2.10B3. HCT-116 cells were then incubated for 12 days at 37° C., 5% CO2 and cell viability was assessed with Promega's CellTiterGlo assay kit. Higher readings are indicative of higher viable cell counts."}, "[6]": {"experiment": "Lipase activity of hNotum, turbidometric Tween 20 lipolysis", "assay_type": "biochemical", "protocol": "Briefly, recombinant hNotum (1 μg/well) was added to an assay buffer containing 50 mM Tris, pH 7.4, 33.3 mM CaCl2, and 0.33% Tween-20. When the Tween 20 monolauryl group is cleaved by lipases (e.g. hNotum), the free fatty acid forms an insoluble complex with the Ca^2+ cations resulting in a turbid solution, the OD of which can be measured at 405 nm to provide a measure of lipase activity. As a positive control, the activity of porcine pancreatic lipase (Sigma Aldrich) was measured in the same assay."}, "[7]": {"experiment": "4-MUH fluorescent hydrolase assay, activity of Notum constructs", "assay_type": "biochemical", "protocol": "as §1"}, "HCT-116 cells": {"tested_on": "HCT-116 cells", "experiment": "Cell survival/proliferation, CellTiterGlo, HCT-116", "assay_type": "cell-based, human", "conditions": "10 μg/mL, 12 days", "protocol": "as §2, §3"}}, "note": "Where a chain is given by its changes, count along the chain named. Names may count otherwise. Where two headings read alike, the source gives them in different places.", "data": [{"molecule": "CCCCCCCCCCC[C@@H](C[C@@H]1OC(=O)[C@H]1CCCCCC)OC(=O)[C@H](CC(C)C)NC=O", "note": "[orlistat]", "values": [{"measurement": "inhibition of hydrolysis activity of Notum upon 4MUH", "setting": "Notum", "value": "inhibits the hydrolysis activity of Notum upon 4MUH in a dose-dependent fashion"}]}, {"molecule": "hNotum-Fc (human Notum fused to human IgG2 Fc) (Fc fusion)", "values": [{"measurement": "IC50 of the decrease in luciferase activity (293.TCF Wnt3A assay)", "setting": "[1]", "value": 0.47}]}, {"molecule": "[Cl-].[Li+]", "note": "[LiCl]", "values": [{"measurement": "activation of luciferase transcription", "setting": "[2]", "value": "activate luciferase transcription"}]}, {"molecule": "B1", "values": [{"measurement": "esterase activity", "setting": "[3]", "value": "display esterase activity"}]}, {"molecule": "B2", "values": [{"measurement": "antagonism of Wnt3A-mediated induction of luciferase", "setting": "[4]", "value": "functionally antagonize"}, {"measurement": "increase in cell counts", "setting": "[5]", "value": "20-45%"}]}, {"molecule": "B3", "values": [{"measurement": "lipase activity", "setting": "[6]", "value": "capable of cleaving Tween 20 in a dose dependent fashion"}, {"measurement": "hydrolysis of the 4-MUH substrate", "setting": "[7]", "value": "capable of hydrolyzing the 4-MUH substrate"}, {"measurement": "increase in cell numbers", "setting": "HCT-116 cells", "value": "more than 2 fold"}, {"measurement": "antagonism of Wnt3A-mediated induction of luciferase", "setting": "[4]", "value": "antagonizes Wnt3A CM"}, {"measurement": "antagonism of Wnt3A-mediated induction of luciferase", "setting": "[4]; listed as wild-type human Notum", "value": "can inhibit the response of the 293.TCF cells to Wnt3A in a dose-dependent fashion"}, {"measurement": "esterase activity", "setting": "[3]", "value": "has carboxyesterase activity"}]}, {"molecule": "B4", "values": [{"measurement": "hydrolysis of the 4-MUH substrate", "setting": "[7]", "value": "no ability to hydrolyze the 4-MUH substrate"}, {"measurement": "antagonism of Wnt3A-mediated induction of luciferase", "setting": "[4]", "value": "did not antagonize"}, {"measurement": "antagonism of Wnt3A-mediated induction of luciferase", "setting": "[4]; listed as S232A", "value": "no ability to antagonize"}, {"measurement": "esterase activity", "setting": "[3]", "value": "greatly reduced esterase activity"}]}]}
